For the data set, the system named is MS2 coat protein. Nature of the data set: apparent KD of MS2 coat protein; designed switch direction (-1 OFF switch, 1 ON switch): 1; higher = weaker reporter binding. An outline of the steps: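 Three titration conditions were used: no input, 200 uM small-molecule ligand, and an oligonucleotide input. In each, SNAP-549-labelled MS2 coat protein was raised from 0.7 or 1.5 nM, doubling, to 3 µM over designed RNA switches transcribed on Illumina chips by stalled E. coli RNA polymerase. Curve fits of normalised cluster fluorescence gave values whose per-design median over clusters is the apparent KD.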

[1] abbreviates: Eterna round: R95, input ligand: FMN 200 uM.
The mark [2] stands for this setting: Eterna round: R95, input ligand: microRNA oligo, concentration not stated.
[3] abbreviates: Eterna round: R95, input ligand: none.
The mark [4] stands for this setting: input ligand: microRNA oligo, concentration not stated.

With “GUUAAACAUGAGGAUCACCCAUGUAAUAUAAUGGGAGGAUAUCUGAAUUAAUUAAAUUAAGGAGAAGGCCUAAUUG [Mat - Same State 1 - Mod of Eli - D52] (puzzle: Same State 1)”, the “apparent KD of MS2 coat protein” value is, setting by setting: under setting [1], 42 nM; under setting [2], 181 nM; under setting [3], 255 nM.

Take “AAAAGAAGAAUGUAGGAUAUACAAAAGAACACAUGAGGAUCACCCAUGUGAGCCUAAUGUAAGAAGUAGAAGGACAAAGAGAAAA [Default title] (puzzle: Same State 2)”: the “apparent KD of MS2 coat protein” value is 91.3 nM under setting [1], 62 nM under setting [2] and 67.3 nM under setting [3].

Consider “CGUUCAUACUCAGGACGGAGAGUAGAGGAACAUGAGGAUCACCCAUGUAUGAGCUUUUUGCUCGUCAUUAACAGUAG [JR_SHM208a_Sub012] (puzzle: Sensor for hsa-mir-208a)”, for which the “apparent KD of MS2 coat protein” value was determined as 61.8 nM under setting [1], 43.4 nM under setting [2] and 81.2 nM under setting [3].

In the case of “UCGUCGACACAAAUUCGACAACAUGAGGAUCACCCAUGUCCACAGGAUAUCGGCAGCUUAUGCUCCGAGAAGGGUGGUUAGAUU [Beage Mod] (Eterna round: R96, puzzle: Same State NG 3)”, the “apparent KD of MS2 coat protein” value worked out at 435 nM (input ligand: FMN 200 uM), 664 nM under setting [4] and 605 nM (input ligand: none).

Regarding “AGCUAGUACCGAGGAUAUACGUACAUGAGGAUCACCCAUGUAUACAUGAAAUAAUGAGACUACAUGUAGAAGGCGGUACUAGCA [Mat - Same State NG 2 - JL mod - D50] (Eterna round: R96, puzzle: Same State NG 2)”, the “apparent KD of MS2 coat protein” value reads like this: (input ligand: FMN 200 uM) 14.2 nM; under setting [4], 33.5 nM; (input ligand: none) 48.7 nM.

In the case of “GUGGUUCUCGUAGGAUAUGUAGGAUAUGCCUACAUGAGGAUCACCCAUGUUCGCAUGGCAGAAGGACAGAAGGACGAUCACUAA [pwkr ssNG2 2FMN + 1F5.15] (Eterna round: R96, puzzle: Same State NG 2)”, the “apparent KD of MS2 coat protein” value by setting is: (input ligand: FMN 200 uM) 159 nM; under setting [4], 11.7 nM; (input ligand: none) 94.2 nM.

As for “GUAUCUACAGGUUUUUUAGCUCGUCUGAUACAUGAGGAUCACCCAUGUUAUAGCCCUGUGCUUGCGCAGGGCUGAGG [Sensor for hsa-mir-208a ( MOD of Tearor v.4 )] (puzzle: Sensor for hsa-mir-208a)”, the “apparent KD of MS2 coat protein” value is, setting by setting: under setting [1], 47.6 nM; under setting [2], 34.1 nM; under setting [3], 49.3 nM.

Consider “GAGCCAGUCCGAGGAUAUUCAUAUUAACAUGAGGAUCACCCAUGUAGGCUCAGAAAGGAGCCUUGGGAGAAGGCGGACUGGCUC [Xeonanisa<<2] (Eterna round: R96, puzzle: Same State NG 2)”, for which the “apparent KD of MS2 coat protein” value was found to be 14.9 nM (input ligand: FMN 200 uM), 114 nM under setting [4] and 251 nM (input ligand: none).

As to “GUGCUCGUGUGAGGAUAUGUUGCCGGGUCGGCUGCAGAAGGUACUAUUAUACAUGAGGAUCACCCAUGUCGCUUUUCUCCGGUG [salish99_SSNG1_r04_920] (Eterna round: R96, puzzle: Same State NG 1)”, the “apparent KD of MS2 coat protein” value stood at 98.3 nM (input ligand: FMN 200 uM), 58.8 nM under setting [4] and 65.8 nM (input ligand: none).

For “UGGUACAUGGGAGGAUAUGGGCAUGAGACAUGAGGAUCACCCAUGUAUUAAAAGCCGAGAGGCAUCUAGAAGGCCCAUGUACCU [JL SSNG1 3.89] (Eterna round: R96, puzzle: Same State NG 2)”, the “apparent KD of MS2 coat protein” value is, setting by setting: (input ligand: FMN 200 uM) 15.8 nM; under setting [4], 80.2 nM; (input ligand: none) 158 nM.

As to “UCUUGGUUUUUGCUCGUUUUUUGUGUUGAACAUGAGGAUCACCCAUGUAUUGUACGGUCCGGUUUAGUAAUGGUCCG [JMF 11] (puzzle: Sensor for hsa-mir-208a)”, the “apparent KD of MS2 coat protein” value turned out to be 24.8 nM under setting [1], 15.1 nM under setting [2] and 25 nM under setting [3].

For “GCAGGACAUGAGGAUCACCCAUGUCUCAAAUAUUGAGGAUAUGGACACGGUAUAUCCGAACCAGAAGGCAACCUGC [SS1 Teenbexe 20] (puzzle: Same State 1)”, the “apparent KD of MS2 coat protein” value under setting [2] was determined as 47.3 nM.

In the case of “AACAAUCUAUCUGAGGAUAUCAUGAGAAGAACAUGAGGAUCACCCAUGUGCAGGAAAACUGCAUAUGAGAAGGCAGAUAGAUUGG [Mat - Same State 2 - Mod - D18] (puzzle: Same State 2)”, the “apparent KD of MS2 coat protein” value by setting is: under setting [1], 52.8 nM; under setting [2], 621 nM; under setting [3], 1950 nM.

With “GUAAUACAUGAGGAUCACCCAUGUCAAUGUAGUCGAGGAUAUGGGUAGCUAUGAGGCUUACUAGAAGGCGACGAGC [Same State 1 - Mod of Vinnie Teenbexe v.5] (Eterna round: R96, puzzle: Same State 1)”, the “apparent KD of MS2 coat protein” value reads like this: (input ligand: FMN 200 uM) 46.5 nM; under setting [4], 208 nM; (input ligand: none) 249 nM.

With “GCUAGAAUUAAAGCCAACAUGAGGAUCACCCAUGUAUGUUGGCAGGAUAUCGUUUGCUUUGCAAACGAGAAGGGCCAAACUAGC [JL SSNG3 1.01] (Eterna round: R96, puzzle: Same State NG 3)”, the “apparent KD of MS2 coat protein” value is, setting by setting: (input ligand: FMN 200 uM) 20.6 nM; under setting [4], 76.1 nM; (input ligand: none) 120 nM.

Take “GGCUAUCGGCGUACCGAUAGCUGGUAUGUACAUGAGGAUCACCCAUGUCAUGUACAGGCUUGUUGCUCGUCUUAUUG [JL-shm-2.38 JL mod] (puzzle: Sensor for hsa-mir-208a)”: the “apparent KD of MS2 coat protein” value by setting is: under setting [1], 144 nM; under setting [2], 33 nM; under setting [3], 165 nM.

Turning to “UAGAGAGGAAGCGAGGAUAUCGUGGGAGGGACAUGAGGAUCACCCAUGUAGGAUGUUGAGAGGAACGAGAAGGCGCAGGAAAGAA [JR_SS2_Sub075] (puzzle: Same State 2)”, the “apparent KD of MS2 coat protein” value by setting is: under setting [1], 67.1 nM; under setting [2], 78.1 nM; under setting [3], 110 nM.

Take “AAUCGUUUGAUAGGAUAUCGUUAUACAUGAGGAUCACCCAUGUUUACCACGCUGGUUUUUCGUACCGAGAAGGAUUCUGAUGAU [JL JR sub007 mod 6] (Eterna round: R96, puzzle: Same State NG 2)”: the “apparent KD of MS2 coat protein” value stood at 30.5 nM (input ligand: FMN 200 uM), 20.2 nM under setting [4] and 27.5 nM (input ligand: none).

As for “AGAUGUUAAUCAGGAUAUGGGCACAUGAGGAUCACCCAUGUAAAUUCGAUACUAUGUGGUCACGUCUAGAAGGGAUGGCUAACA [SameState NG2 #82] (Eterna round: R96, puzzle: Same State NG 2)”, the “apparent KD of MS2 coat protein” value (input ligand: FMN 200 uM) came to 189 nM, the “apparent KD of MS2 coat protein” value under setting [4] worked out at 158 nM and the “apparent KD of MS2 coat protein” value (input ligand: none) was 250 nM.

As for “AACGGCAGAUGAGGAUAUACUUGCCAUGCGAGCACGCUCGCUACAUGAGGAUCACCCAUGUAUGGGUAGAAGGCAUCAUGAUAC [Eternabot solution 39] (Eterna round: R96, puzzle: Same State NG 2)”, the “apparent KD of MS2 coat protein” value runs as follows: (input ligand: FMN 200 uM) 89.6 nM; under setting [4], 102 nM; (input ligand: none) 243 nM.

Consider “GAAUAAGUUUACGAGGAUAUGUUCCGCAUAACAUGAGGAUCACCCAUGUGAACAAGAAAGGCGACGCAGAAGGCGUGAGCAGAAG [Mat - Same State 2 - Mod of UCT - D100] (puzzle: Same State 2)”, for which the “apparent KD of MS2 coat protein” value is, setting by setting: under setting [1], 23 nM; under setting [2], 11.4 nM; under setting [3], 117 nM.

As to “UAGUGCAUUAGAGGAUAUUCUUACGACACGAGUAAGACAUGAGGAUCACCCAUGUCGUGGCAUGGGAAGAAGGCUGAUGUGCUA [Omei SS(NG)2 Bv7] (Eterna round: R96, puzzle: Same State NG 2)”, the “apparent KD of MS2 coat protein” value runs as follows: (input ligand: FMN 200 uM) 14.4 nM; under setting [4], 11.1 nM; (input ligand: none) 34.7 nM.

As to “AAACGGUCGCUGCGGCGGCCACAUGAGGAUCACCCAUGUACAUAGGAUAUCGCCUAAAAUACUGGCGAGAAGGGUGAUUAAAGA [Ergegeti] (Eterna round: R96, puzzle: Same State NG 3)”, the “apparent KD of MS2 coat protein” value by setting is: (input ligand: FMN 200 uM) 132 nM; under setting [4], 36.2 nM; (input ligand: none) 79.4 nM.

On to “UAGAAACAUGAGGAUCACCCAUGUGGGUUAAACACAGGAUAUCACGCCAAAAGAAAAGCGUGAGAAGGGUGACCGA [Xeusisus] (puzzle: Same State 1)”, for which the “apparent KD of MS2 coat protein” value by setting is: under setting [1], 166 nM; under setting [2], 71.2 nM; under setting [3], 161 nM.

Take “AGAGUGUAUCCACAGGAUAUGCGAGCUGACACAUGAGGAUCACCCAUGUAGUCCUAAAGGGCCAAGCAGAAGGGUGGUAAAGCUC [Oneson] (puzzle: Same State 2)”: the “apparent KD of MS2 coat protein” value runs as follows: under setting [1], 17.5 nM; under setting [2], 28.9 nM; under setting [3], 33.9 nM.

On to “GGUGGGUUACUACCAACACAUGAGGAUCACCCAUGUUUUGGGAAGGAUAUGGUACCUAUUUGGUACCAGAAGGUCCGGUUGGUG [salish99_SSNG3_r04_704] (Eterna round: R96, puzzle: Same State NG 3)”, for which the “apparent KD of MS2 coat protein” value runs as follows: (input ligand: FMN 200 uM) 47.8 nM; under setting [4], 100 nM; (input ligand: none) 100 nM.

In the case of “ACAUGAGACCAAGGAUAUUUUGUACCUACAUGUGACAUGAGGAUCACCCAUGUGGUAAGUAUGAGAGAGAAGGUGGAGAUAUGU [Equivalence 23 - Jieux - Same State NG 2] (Eterna round: R96, puzzle: Same State NG 2)”, the “apparent KD of MS2 coat protein” value (input ligand: FMN 200 uM) was 34.4 nM, the “apparent KD of MS2 coat protein” value under setting [4] turned out to be 21.5 nM and the “apparent KD of MS2 coat protein” value (input ligand: none) is 36.5 nM.
